Experimental data from US12599645B2, “Antibodies which bind to lysophosphatidic acid receptor 1 (LPAR1)” (DJS ANTIBODIES LTD, priority 2021, dated 2026).

Columns and labels:
[1] = molecular target: T1, LPAR1 (Homo sapiens, UniProt Q92633); assay: Transient-transfection CIFAT, live cells; format: binding; design: HA; expressed in transfected cells; host or cells: CHO-K1 (transient, PEI); settings: 5 μg/mL or 20 μg/mL
Procedure: CHO-K1 cells are seeded in multi well plates at 20,000 cells per 200 μL full growth medium and incubated for 24 hours at 37° C. In a sterile tube, 0.0309 uL/well PEI is diluted into 10 uL/well transfection medium (DMEM supplemented with 2 mM L-glutamine and Penicillin-Streptomycin). The diluted PEI is added to 100 ng/well DNA, before mixing immediately and incubating the mixture for 10 minutes at room temperature. 200 μL/well full growth medium is added to the PEI-DNA mixture, then medium in wells is taken off and 200 ul full growth medium/PEI/DNA mixture is added in the wells of the adherent cell plate. The plate is incubated for 24 hours at 37° C. The medium is discarded and replaced with 200 μL full growth medium. The plate is incubated for 24 hours at 37° C. Medium is removed from the wells and the cells incubated with primary antibody at varying concentrations for 75 minutes at 37° C. After washing and cell fixation with 4% PFA, the binding of the antibodies is detected using a goat anti-human detection antibody, incubated for 1 hour at room temperature. Fluorescence at 488 nm is measured.
CHO-K1 cells were seeded in clear 96-well plates at 20,000 cells per 200 μL full growth medium and incubated for 24 hours at 37° C. The following day, in a sterile tube, 0.0309 uL/well PEI (Generon, MW 160,000) was diluted into 10 uL/well transfection medium (DMEM supplemented with 2 mM L-glutamine and Penicillin-Streptomycin). The diluted PEI was added to 100 ng/well DNA encoding the target protein (human LPAR1 (SEQ ID NO: 62) unless otherwise stated), before vortexing immediately and incubating the mixture for 10 minutes at room temperature. 200 μL/well full growth medium was added to the PEI-DNA mixture, then medium in wells was taken off and 200 ul full growth medium/PEI/DNA mixture was added in the wells of the adherent cell plate. The plate was incubated for 24 hours at 37° C. The next day, the medium was discarded and replaced with 200 μL full growth medium. The plate was incubated for 24 hours at 37° C. The following day, medium was removed from the wells and the cells incubated with primary antibody at varying concentrations for 75 minutes at 37° C. After washing and cell fixation with 4% PFA, the binding of the antibodies was detected using a goat anti-human Alexa Fluor 488 detection antibody (Invitrogen), incubated for 1 hour at room temperature. Fluorescence at 488 nm was measured using a BMG LABTECH ClarioStar plate reader and microscopy images were taken at 10× magnification.
(§1) Anti-LPAR1 antibodies of the invention were tested alongside commercially available anti-LPAR1 antibodies in the transient-transfection CIFAT assay for live cells (method 1.11) and in the transient-transfection CIFAT assay for fixed cells (method 1.11).

[2] = molecular target: T1, LPAR1; assay: LPAR1 binding affinity during discovery and affinity maturation, method not stated; design: expressed in transfected cells; settings: stated in words
[3] = molecular target: T1, LPAR1; assay: Transient-transfection CIFAT, fixed/permeabilised cells; format: binding; design: HA; expressed in transfected cells; host or cells: CHO-K1 (transient, PEI); settings: 5 μg/mL
[4] = design: species or system Sprague Dawley rats; settings: rat, in vivo, iv, 3 mg/kg
Procedure: The rat pharmacokinetics study was carried out in male Sprague Dawley rats (275-325 g). Rats received an IV slow bolus (3 mg/kg) of test antibody. Blood samples were taken at the following time-points: pre-dose, 2 min, 1 hour, 3 hours, 6 hours, 24 hours, 48 hours, 96 hours, 7 days, 14 days and 21 days after dosing. For each animal and for each blood sampling, 200 μL venous blood was obtained from the sublingual vein under isoflurane anaesthesia in K2EDTA vials. The blood samples were gently mixed, placed immediately on crushed ice and centrifuged within 30 min of sampling at approximately 1500×g for approximately 10 min at approximately 4° C. For each blood sample, the resulting plasma was separated into 2 aliquots of 30 μL and transferred, using disposable plastic material, into polypropylene tubes with conical bottom and stored at −80° C. until analysis by capture ELISA. Plates were coated overnight with 1 μg/mL capture IgG before washing and blocking with 3% (w/v) milk the next morning for 2 hours. […] Absorbance was measured on a plate reader at 450 nm. Antibody concentrations were calculated using interpolation off a standard curve constructed for each individual test IgG in Prism 5 (GraphPad Software, CA, USA). Interpolated data was analysed using Phoenix WinNonlin® version 8.1 (Certara USA, Inc., Princeton, NJ) to extract relevant PK parameters. […]

[5] = molecular target: T1, LPAR1; assay: BRET assay (G protein activation and βArrestin 2 biosensors); format: cell-based; design: expressed in transfected cells; host or cells: HEK293 (transient, PEI); settings: G13 biosensor
Procedure: Using polyethylenimine (PEI) transfection agent at a 3:1 ratio, HEK293 cells were co-transfected in suspension with hLPAR1 and one of the following biosensors: G protein activation sensors (Gαi2, Gα13, and Gαq) and the βArrestin 2-PM recruitment biosensor (+GRK2). Cells were directly seeded in 96-well plates immediately following transfection at a density of 35,000 cells/well. 48 hours post-transfection, BRET experiments were performed in both agonist and allosteric/antagonist mode. Using a plate washer, culture medium was aspirated and replaced with 30 μl of Hank's Balanced Salt Solution buffer (HBSS). Plates were equilibrated at room temperature for 60 minutes. For agonist testing, serial dilutions of the antibodies were performed in PBS and then added to each well. Antibodies were assayed at 12 concentrations in technical duplicates. Small molecules were added to each relevant well. Small molecules were assayed at 22 concentrations with each biosensor. Cells were then incubated with the antibodies or small molecules at room temperature for 60 or 10 minutes, respectively. 10 μl of 10 μM e-Coelenterazine Prolume Purple (Nanolight) was then added to each well. Cells were incubated at room temperature for an additional 10 minutes. BRET readings were then collected with a 0.4 sec integration time on a plate reader (filters: 400 nm/70 nm, 515 nm/20 nm). For allosteric testing (after agonist testing), an EC75 of the endogenous ligand (oleoyl-LPA) was added to each well already containing antibody or small molecule. Cells were incubated at room temperature for an additional 10 minutes. BRET readings were then collected with a 0.4 sec integration time on a plate reader (filters: 400 nm/70 nm, 515 nm/20 nm). BRET signals were determined by calculating the ratio of light emitted by GFP-acceptor (515 nm) over light emitted by luciferase-donor (400 nm). All BRET ratios were standardized with pre-established BRET values for positive and negative controls. The standardized BRET ratio is referred to as universal BRET (uBRET). Resulting dose-response curves were fitted using the three- or four-parameter logistic non-linear regression model in GraphPad Prism 9.
The inhibition characteristics of Antibody 12 were investigated by Bioluminescence Resonance Energy Transfer (BRET, method 1.15) and compared to a small molecule LPAR1 inhibitor of the prior art (BMS-986020), see FIG. 13. The upper lines are values recorded with LPA present and the lower lines are values recorded with LPA not present. […] This can only happen if the ligand (LPA) is also interacting with the receptor at the same time to enable some signalling. […]

[6] = system: Irrelevant GPCR; assay: Transient-transfection CIFAT, irrelevant GPCR control (fixed and live cells); format: binding; settings: cells expressing irrelevant GPCR
Procedure: as §1
The results are shown in FIGS. 11 and 12, wherein the scale bar represents 100 μm.

[7] = Dose range-finding toxicity study, liver histopathology; format: in vivo; settings: cynomolgus
Procedure: A dose range-finding study was carried out to determine the potential toxicity of Antibody 17 when given by the intravenous (infusion) route to cynomolgus monkeys. The test item, Antibody 17, was administered to 8 animals via intravenous infusion (30 minutes) on Day 1 (Group 1) or on Days 1, 8 and 15 (Groups 2 to 4). Animals were split by sex, allocated into 4 groups and dosed with Antibody 17 at 10, 33 or 100 mg/kg/day.
A complete gross pathological examination, organ weight recording and microscopic evaluation were performed on the six animals that were given 3 doses of Antibody 17 (Groups 2 to 4) two days after the third dose.

[8] = system: renal fibrosis after UUO surgery; assay: Unilateral ureteral obstruction (UUO) efficacy model of renal fibrosis; format: in vivo, Hartley guinea pigs; settings: Study 2
Procedure: Unilateral ureteral obstruction (UUO) is a well-characterized disease model for renal fibrosis. The UUO model encompasses key pathophysiological features of chronic kidney disease; tubular necrosis and inflammatory cell infiltration within a relatively short period.
Two unilateral ureteral obstruction (UUO) model efficacy studies were carried out in six-week old female Hartley guinea pigs. On Day 0, UUO surgery was performed. BMS-986020 was administered orally at a dose level of 30 mg/kg in a volume of 5 mL/kg twice daily at from Day −1 to 9. Isotype control and anti-LPAR1 antibody was intraperitoneally administered at a dose level of 6 mg/kg (low) or 20 mg/kg (high) in a volume of 10 mL/kg at Day −1, Day 0, Day 3 and Day 6. The viability, clinical signs, behaviour and individual body weight was monitored daily.
The animals were sacrificed at Day 10. The ligated left kidney and right kidney weight were measured at sacrifice.
Hydroxyproline is an amino acid, making up around 14% of collagen and acts as an important indicator of the severity of fibrosis. To quantify kidney hydroxyproline content, frozen posterior right section of left kidney samples were processed by an alkaline-acid hydrolysis method. AC buffer (2.2M acetic acid/0.48M citric acid) was added to the samples, followed by centrifugation to collect the supernatant. A standard curve of hydroxyproline was constructed with serial dilutions of trans-4-hydroxy-L-proline (Sigma-Aldrich, USA) starting at 16 μg/mL. The prepared samples and standards were mixed with chloramine T solution (Nacalai Tesque Inc., Japan) and incubated for 25 minutes at room temperature. The samples were then mixed with Ehrlich's solution and heated at 65° C. for 20 minutes to develop the colour. After samples were cooled on ice and centrifuged to remove precipitates, the optical density of each supernatant was measured at 560 nm. The concentrations of hydroxyproline were calculated from the hydroxyproline standard curve. Protein concentrations of kidney samples were determined using a BCA protein assay kit (Thermo Fisher Scientific, USA) and used to normalize the calculated hydroxyproline values. Kidney hydroxyproline contents were expressed as μg per mg protein.
The left kidney was fixed in Bouin's solution and embedded in paraffin. For PAS staining, sections were cut from paraffin blocks and stained with Schiff's reagent (FUJIFILM Wako pure chemical corporation, Japan) according to the manufacturer's instructions. To visualize collagen deposition, kidney sections were stained using picro-Sirius red solution (FUJIFILM Wako pure chemical corporation). For quantification of interstitial and medulla fibrosis area, bright field images in the corticomedullary region were captured using a digital camera (DFC295) at 200-fold magnification, and the positive areas in 5 fields/section were measured using ImageJ software (National Institute of Health, USA).

[9] = IV infusion, 10, 33 or 100 mg/kg/day

T1 sequence (Q92633 whole entry): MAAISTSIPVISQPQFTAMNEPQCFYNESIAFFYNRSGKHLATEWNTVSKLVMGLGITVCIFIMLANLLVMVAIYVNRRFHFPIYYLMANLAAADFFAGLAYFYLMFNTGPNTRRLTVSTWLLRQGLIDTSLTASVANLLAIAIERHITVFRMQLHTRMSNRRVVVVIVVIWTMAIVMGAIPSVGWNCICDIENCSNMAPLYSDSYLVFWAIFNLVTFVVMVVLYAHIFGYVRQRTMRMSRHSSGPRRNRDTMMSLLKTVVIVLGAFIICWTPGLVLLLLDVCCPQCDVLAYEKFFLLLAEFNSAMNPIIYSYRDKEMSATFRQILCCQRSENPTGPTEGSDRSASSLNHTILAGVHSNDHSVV

B1: Antibody 12: LCDR2 mutation T56D; VH SEQ ID NO: 36, VL SEQ ID NO: 38 (antibody, V domains shown)
VH: QVQLVQSGSELKKPGASVKVSCKASGYTFTSSGISWVRQAPGQGLEWMGEILPRSGYTNYNQGFTGRFVFSADKSVSTAYLQISSLKAEDTAVYYCARDFKGGRYAMDYWGQGTTVTVSS
VL: SIQMTQSPSSLSASVGDRVTITCQASQSVRYNVAWYQQKPGKAPKLLIYYASNRYDGVPSRFSGSGSGTDFTFTISSLQPEDIATYFCQHHYSSPLTFGGGTKLEIK
Question: Which “LPAR1 live cell staining” value [1] does the source give for B1 here?
Answer: Its value is “LPAR1-Significant fixed and live cell staining”.

Question: What about the “binding affinity for LPAR1” value [2] of the same molecule?
Answer: The value was “minimal effect on affinity”.

Question: What about the “LPAR1 fixed cell staining” value [3] of the same molecule?
Answer: The value was “LPAR1-Significant fixed and live cell staining”.

Question: And the “mean Cmax” value [4]?
Answer: Its value is 217.5 µg/mL.

Question: And the mode of inhibition [5]?
Answer: The mode of inhibition was “acting allosterically”.

Question: What about the “inhibition with LPA present compared to the system where LPA is absent” value ([5]; even at high concentrations) of the same molecule?
Answer: Its value is “does not deliver equivalent inhibition”.

Question: What about the “Irrelevant GPCR cell staining” value [6] of the same molecule?
Answer: The value was “Irrelevant GPCR-No significant cell staining”.

B2: Antibody 17: Optimised antibody; VH SEQ ID NO: 102, VL SEQ ID NO: 99 (antibody, V domains shown)
VH: QVQLVQSGSELKKPGASVKVSCKASGYTFTSSGISWVRQAPGQGLEWMGEIQPRSGYTNYNQGFTGRFVFSADKSVSTAYLQISSLKAEDTAVYYCARDKGPARYTMDYWGQGTTVTVSS
VL: SIQMTQSPSSLSASVGDRVTITCQASQSVRYNVAWYQQKPGKAPKLLIYYASNRYEGVPSRFSGSGSGTDFTFTISSLQPEDIATYFCQHHYSSPLTFGGGTKLEIK
Question: What does the source list for B2?
Answer: histopathology findings ([7]; 3 doses (Days 1, 8 and 15), two days after the third dose): no adverse findings; adverse effects throughout the study [7, 9]: No adverse effects; tolerability at the injection sites [7, 9]: well tolerated; unscheduled deaths [7, 9]: no unscheduled deaths; histological picrosirius staining [8]: No observable difference; kidney hydroxyproline ([8]; BMS-986020 30 mg/kg oral vs vehicle, antibody 20 mg/kg (high) i.p. vs isotype antibody): significant reduction in hydroxyproline; mean Cmax [4]: 143.8 µg/mL
